Results from PMC13507078, “The BRCT domain enhances DNA binding and catalytic efficiency of fungal PARPs”.

Molecular target: T1, Af-PARP1 ΔBRCT (Aspergillus fumigatus, UniProt B0Y3N8 196-688)
T1 sequence: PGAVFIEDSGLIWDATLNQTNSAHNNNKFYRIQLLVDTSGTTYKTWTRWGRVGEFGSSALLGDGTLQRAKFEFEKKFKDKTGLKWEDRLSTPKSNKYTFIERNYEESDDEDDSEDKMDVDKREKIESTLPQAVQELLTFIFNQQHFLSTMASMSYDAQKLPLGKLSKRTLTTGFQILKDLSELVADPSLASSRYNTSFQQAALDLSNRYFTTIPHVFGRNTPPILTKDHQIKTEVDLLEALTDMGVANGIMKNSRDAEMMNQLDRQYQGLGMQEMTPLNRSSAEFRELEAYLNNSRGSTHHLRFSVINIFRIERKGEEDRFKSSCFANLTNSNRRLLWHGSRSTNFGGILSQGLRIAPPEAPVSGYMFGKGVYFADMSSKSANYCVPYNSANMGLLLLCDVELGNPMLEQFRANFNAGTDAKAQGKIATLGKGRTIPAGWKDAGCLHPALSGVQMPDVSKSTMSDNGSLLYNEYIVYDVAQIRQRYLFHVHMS
Assay: EMSA; similar apparent strength to WT in titration; EMSA: 50 mM HEPES pH 8, 100 mM NaCl, 10% glycerol, 10 mM DTT, 45 min at 4 °C, 7% native PAGE 0.5x TBE; plasmid EMSA: 20 mM Tris-HCl pH 8, 30 mM NaCl, 1 mM EDTA, 1 mM DTT; CD: 20 mM HEPES pH 8, 100 mM NaCl, 0.5 mM TCEP, 2% glycerol
Conditions: protein: recombinant; tags: N-terminal His (HRV3C-cleavable; removed for SAXS/CD); dumbbell of two hairpins, nick

B1: DNA-1 (5'P nick) (structured_DNA)
DNA: CGGTCGATCGTAAGATCGACCGGCGCTGGAGCTTGCTCCAGCGC
modifications: 5'-phosphate
- binding result: binds
